Laboratory results reported in US20180194862A1 (AbbVie / Abbott, published 2018).
Like-named read-outs stand apart in the source and are kept apart here.

Tests used:
[1] = target: CD40 (binding assays of Example 4, Table 4-2); test: antigen binding, format not stated
[2] = target: T1, MSLN (binding assays of Example 4, Table 4-2) (Homo sapiens (Human), UniProt Q13421 296-598); test: antigen binding, format not stated
T1 construct: also called mesothelin

mouse CD40 = target: T2, mouse CD40 (mouse, UniProt P27512 20-193, limits assumed); test: CD40 binding, format not stated
T2 construct: also called murine CD40
T2 sequence (looked up): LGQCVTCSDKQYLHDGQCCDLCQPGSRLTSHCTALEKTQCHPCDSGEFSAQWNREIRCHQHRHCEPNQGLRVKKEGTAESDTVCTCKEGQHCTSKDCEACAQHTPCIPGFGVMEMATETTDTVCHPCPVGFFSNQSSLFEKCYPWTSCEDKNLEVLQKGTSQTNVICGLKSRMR

cynomolgus mesothelin [3] = target: T3, cynomolgus mesothelin (cynomolgus); test: SPR
T3 construct: also called cynoMSLN; Cyno MSLN

human mesothelin [4] = target: T4, human mesothelin (human, UniProt Q13421 296-580, limits assumed); test: SPR
T4 construct: also called Human MSLN

[5] = target: T5, mesothelin on cells (endogenous on SN12C, OVCAR3, SW1990); HEK293 cells expressing cell-surface human … (human, UniProt Q13421 296-598); test: FACS, SN12C (CA125-)
T5 construct: whole, on cells; also called cell-surface MSLN
T5 sequence (Q13421 other isoform, or with tags, fused parts or gaps limits assumed): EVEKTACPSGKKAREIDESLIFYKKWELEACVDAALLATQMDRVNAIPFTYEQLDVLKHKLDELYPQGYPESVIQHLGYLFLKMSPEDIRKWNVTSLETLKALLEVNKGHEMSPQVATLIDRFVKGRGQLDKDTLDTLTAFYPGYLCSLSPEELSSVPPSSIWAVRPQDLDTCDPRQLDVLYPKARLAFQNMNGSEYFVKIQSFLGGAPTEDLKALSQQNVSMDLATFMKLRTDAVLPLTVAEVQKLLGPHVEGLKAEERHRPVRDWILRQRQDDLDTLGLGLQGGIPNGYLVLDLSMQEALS
Experimental: (§1) The binding of anti-mesothelin affinity matured variants was measured by FACS on the ovarian cancer cell line OVCAR3, the pancreatic cancer cell line SW1990, and the renal cancer cell line SN12C. Both OVCAR3 and SW1990 express CA125, but CA125 expression on SN12C cells was not detected.

[6] = target: T5, mesothelin on cells (endogenous on …); test: FACS, OVCAR3 (CA125+)
Experimental: as §1

[7] = target: T6, human CD40 on cells (HEK293 stable transfectants, HEK-Blue CD40 cells, human B cells, monocytic cells, … (human, UniProt P25942 21-277)); test: cell-based or functional assay
T6 sequence (P25942 21-277 limits assumed): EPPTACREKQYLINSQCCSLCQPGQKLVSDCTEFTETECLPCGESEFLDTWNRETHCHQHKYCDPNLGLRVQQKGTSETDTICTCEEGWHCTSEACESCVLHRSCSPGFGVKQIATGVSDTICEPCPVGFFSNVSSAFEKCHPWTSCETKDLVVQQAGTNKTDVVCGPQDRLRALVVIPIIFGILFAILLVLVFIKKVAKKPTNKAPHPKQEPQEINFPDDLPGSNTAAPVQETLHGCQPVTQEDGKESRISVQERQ

[8] = target: T6, human CD40 on cells (HEK293 stable …); test: CD40 occupancy on B cells, -MSLN (n = 3)
[9] = target: T7, soluble form of the extracellular domain of human CD40 (Creative BioMart) (human, UniProt P25942 21-193); test: SPR
T7 construct: Bought
T7 sequence (P25942 21-193 limits assumed): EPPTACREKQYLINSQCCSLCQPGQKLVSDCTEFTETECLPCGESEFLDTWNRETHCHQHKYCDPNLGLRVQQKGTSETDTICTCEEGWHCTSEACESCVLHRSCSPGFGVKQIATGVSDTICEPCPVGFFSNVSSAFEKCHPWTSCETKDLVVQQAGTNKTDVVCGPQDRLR

cynomolgus mesothelin [10] = target: T3, cynomolgus mesothelin; test: SPR; remark: listed apart in the source
[11] = target: T8, soluble form of the extracellular domain of cynomolgus (cyno) CD40 (Creative BioMart) (cynomolgus, UniProt G7PG38 21-193); test: SPR
T8 construct: extracellular domain; also called Cynomolgus CD40

human mesothelin [12] = target: T4, human mesothelin; test: SPR; remark: listed apart in the source
[13] = target: T7, soluble form of the extracellular …; test: SPR; remark: listed apart in the source
human mesothelin [14] = target: T4, human mesothelin; test: SPR; remark: listed apart in the source
cynomolgus mesothelin [15] = target: T3, cynomolgus mesothelin; test: SPR; remark: listed apart in the source
[16] = target: T8, soluble form of the extracellular …; test: SPR, fast kinetics
[17] = target: T6, human CD40 on cells (HEK293 stable …); test: cell-based or functional assay; remark: listed apart in the source
[18] = target: T8, soluble form of the extracellular …; test: SPR; remark: listed apart in the source
MSLN (Table 10-1) = target: T9, MSLN (Table 10-1); test: MSLN binding, format not stated
T9 chain: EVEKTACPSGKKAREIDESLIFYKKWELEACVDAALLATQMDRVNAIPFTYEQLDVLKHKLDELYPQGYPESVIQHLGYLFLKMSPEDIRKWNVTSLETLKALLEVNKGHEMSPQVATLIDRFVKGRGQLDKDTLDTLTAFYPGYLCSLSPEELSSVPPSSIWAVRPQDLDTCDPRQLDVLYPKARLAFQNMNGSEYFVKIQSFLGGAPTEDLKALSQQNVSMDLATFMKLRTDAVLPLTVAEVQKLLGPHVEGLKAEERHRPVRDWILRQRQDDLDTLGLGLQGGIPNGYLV

T1 sequence (Q13421 other isoform, or with tags, fused parts or gaps limits assumed, form in doubt): as the sequence (Q13421 other isoform, or with tags, fused parts or gaps limits assumed) above
Chain of CD40 (binding assays of Example 4, Table 4-2) (P25942 21-277): as the sequence (P25942 21-277 limits assumed) above

B1: B39 (bispecific antibody, IgG2)
chain: EVQLQESGPGLVKPSETLSLTCTVSGYSITSNYYWNWIRQPPGKGLEWMGYIRYDGSNNYNPSLKNRVTISRDTSKNQFSLKLSSVTAADTAVYYCARLDYWGQGTTVTVSSDLSGGGGSGGGGSGGGGSGGGGSTGDAVMTQTPLSLSVTPGQPASISCRSSQSLENTNGNTFLNWYLQKPGQSPQLLIYRVSNRFSGVPDRFSGSGSGTDFTLKISRVEAEDVGVYYCLQVTHVPFTFGQGTKLEIKRVERKSSVECPPCPAPPVAGPSVFLFPPKPKDTLMISRTPEVTCVVVDVSHEDPEVQFNWYVDGVEVHNAKTKPREEQFNSTFRVVSVLTVVHQDWLNGKEYKCKVSNKGLPAPIEKTISKTKGQPREPQVYTLPPSREEMTKNQVSLTCLVKGFYPSDIAVEWESNGQPENNYKTTPPMLDSDGSFFLYSKLTVDKSRWQQGNVFSCSVMHEALHNHYTQKSLSLSPGKVDGASSPVNVSSPSVQDIEVQLVQSGAEVKKPGASVKVSCKASGDTFKRYYVHWVRQAPGQGLEWMGIINPSGVSTTYAQKFQGRVTMTRDTSTSTVYMELSSLRSEDTAVYYCAEVRGSGFNYFGMDVWGQGTLVTVSSDLSGGGGSGGGGSGGGGSGGGGSTGSYELTQPPSVSVSPGQTASITCSGDKLGDKYASWYQQKPGQSPVLVIYQDNRRPSGIPERFSGSNSGNTATLTISGTQAMDEADYYCQAWDSDTYVFGTGTKVTVLGQ
notes: scFv-Fc-scFv, huIgG2
Work on B1 yielded an EC50 [1] of 0.5 µg/mL and an EC50 [2] of 7.4 µg/mL.

B2: anti-CD40 antibody (1C10 mIgG1) (antibody, V domains shown)
VH: EVQLVESGGGLVQPGRSLKLSCAASGFTFSNYDMAWVRQAPTKGLEWVASISPSGGRTYYRDSVKGRFTVSRDNAKSTLYLQMDSLRSEDTATYYCARHDGSYFDYWGQGVMVTVSS
VL: DTVLTQSPALAVSPGERVTISCRASESVSTLMHWYQQKPGQQPKLLIYLASHLESGVPARFSGSGSGTDFTLTIDPVEADDTATYYCQESWNDPWTFGGGTKLELK
notes: murine IgG1
Work on B2 yielded an EC50 (mouse CD40) of 0.21 µg/mL.

B3: HuAM15 (antibody, V domains shown)
VH: EVQLVQSGAEVKKPGASVKVSCKASGDTFKRYYVHWVRQAPGQGLEWMGIINPSGVSTTYAQKFQGRVTMTRDTSTSTVYMELSSLRSEDTAVYYCAEVRGSGFNYFGMDVWGQGTLVTVSS
VL: SYELTQPPSVSVSPGQTASITCSGDKLGDKYASWYQQKPGQSPVLVIYQDNRRPSGIPERFSGSNSGNTATLTISGTQAMDEADYYCQAWDSDTYVFGTGTKVTVL
notes: fully human antibody
In the case of B3, the Kd (cynomolgus mesothelin [3]) is reported as 4.5 nM, the koff (cynomolgus mesothelin [3]) is reported as 0.00018 s⁻¹ and the kon (cynomolgus mesothelin [3]) is reported as 40000 M⁻¹ s⁻¹. The Kd (human mesothelin [4]) was 0.31 nM, the koff (human mesothelin [4]) was 1.3e-05 s⁻¹ and the kon (human mesothelin [4]) was 44000 M⁻¹ s⁻¹. For the same binder, the EC50 [5] was 0.07 µg/mL, the “Maximum binding (MFI)” value [5] was 9390 MFI and the EC50 [6] was 0.7 µg/mL. For the same binder, the “Maximum binding (MFI)” value [6] was 3550 MFI and the EC50 [2] was 0.9 µg/mL.

B4: huAb9 A2I (antibody, human IgG1, kappa)
heavy: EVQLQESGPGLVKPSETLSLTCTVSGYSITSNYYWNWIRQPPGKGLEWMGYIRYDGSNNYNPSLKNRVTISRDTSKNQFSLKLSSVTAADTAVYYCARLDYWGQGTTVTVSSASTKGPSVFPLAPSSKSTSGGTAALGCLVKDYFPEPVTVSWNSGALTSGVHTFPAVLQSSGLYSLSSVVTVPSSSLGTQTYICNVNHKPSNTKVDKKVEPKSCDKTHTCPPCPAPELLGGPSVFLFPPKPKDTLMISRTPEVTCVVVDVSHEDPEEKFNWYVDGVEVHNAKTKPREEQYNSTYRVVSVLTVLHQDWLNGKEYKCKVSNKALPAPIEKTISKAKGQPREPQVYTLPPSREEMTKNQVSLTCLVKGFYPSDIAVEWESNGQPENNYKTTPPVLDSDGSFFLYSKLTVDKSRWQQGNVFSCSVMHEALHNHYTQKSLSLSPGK
light: DIVMTQTPLSLSVTPGQPASISCRSSQSLENTNGNTFLNWYLQKPGQSPQLLIYRVSNRFSGVPDRFSGSGSGTDFTLKISRVEAEDVGVYYCLQVTHVPFTFGQGTKLEIKRTVAAPSVFIFPPSDEQLKSGTASVVCLLNNFYPREAKVQWKVDNALQSGNSQESVTEQDSKDSTYSLSSTLTLSKADYEKHKVYACEVTHQGLSSPVTKSFNRGEC
notes: human IgG1 V273E
With B4 the “B-cell CD23 EC50, +MSLN” value [7] was 2.5 nM, the “B-cell CD23 EC50, -MSLN” value [7] was 1.4 nM and the “B-cell CD86 EC50, +MSLN” value [7] was 0.7 nM. The “B-cell CD86 EC50, -MSLN” value [7] was 0.35 nM, the “B-cell proliferation EC50, +MSLN” value [7] was 12 nM and the “B-cell proliferation EC50, -MSLN” value [7] was 4.5 nM. The “moDC CD83 EC50, +MSLN” value [7] was 6.9 nM, the “moDC CD83 EC50, -MSLN” value [7] was 2 nM and the “moDC IL-12p70 EC50, +MSLN” value [7] was 3.4 nM. The “moDC IL-12p70 EC50, -MSLN” value [7] was 12.4 nM and the EC50 [8] was 4.1 nM.

B5: CF1 (bispecific antibody, human IgG1, lambda)
heavy: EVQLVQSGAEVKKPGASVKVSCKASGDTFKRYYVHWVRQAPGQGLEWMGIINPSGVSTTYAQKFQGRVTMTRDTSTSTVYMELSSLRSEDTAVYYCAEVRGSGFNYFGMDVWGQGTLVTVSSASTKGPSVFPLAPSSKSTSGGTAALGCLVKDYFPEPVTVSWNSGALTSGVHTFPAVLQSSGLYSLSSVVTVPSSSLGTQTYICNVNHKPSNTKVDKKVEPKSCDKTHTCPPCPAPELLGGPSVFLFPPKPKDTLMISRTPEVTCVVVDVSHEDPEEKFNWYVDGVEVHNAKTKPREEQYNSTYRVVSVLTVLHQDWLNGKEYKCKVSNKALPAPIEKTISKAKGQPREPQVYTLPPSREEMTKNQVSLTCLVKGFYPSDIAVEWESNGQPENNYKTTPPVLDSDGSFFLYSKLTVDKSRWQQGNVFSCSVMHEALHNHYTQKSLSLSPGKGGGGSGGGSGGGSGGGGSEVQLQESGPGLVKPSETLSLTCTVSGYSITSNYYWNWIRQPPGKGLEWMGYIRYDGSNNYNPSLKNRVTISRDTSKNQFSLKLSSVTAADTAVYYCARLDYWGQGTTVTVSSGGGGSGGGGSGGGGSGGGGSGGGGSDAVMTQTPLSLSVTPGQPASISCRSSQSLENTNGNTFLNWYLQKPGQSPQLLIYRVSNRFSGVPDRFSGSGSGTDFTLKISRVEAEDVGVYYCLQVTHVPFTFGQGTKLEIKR
light: SYELTQPPSVSVSPGQTASITCSGDKLGDKYASWYQQKPGQSPVLVIYQDNRRPSGIPERFSGSNSGNTATLTISGTQAMDEADYYCQAWDSDTYVFGTGTKVTVLGQPKAAPSVTLFPPSSEELQANKATLVCLISDFYPGAVTVAWKADSSPVKAGVETTTPSKQSNNKYAASSYLSLTPEQWKSHRSYSCQVTHEGSTVEKTVAPTECS
notes: IgG-scFv: HuAM15 Fab, IgG1 V273E, CD40 scFv
For B5, the Kd [9] was < 400 nM, the Kd (cynomolgus mesothelin [10]) was ≤ 0.29 nM and the Kd [11] was < 150 nM. For the same binder, the Kd (human mesothelin [12]) was < 400 nM, the Kd [13] was 390 nM and the koff [13] was 0.26 s⁻¹. For the same binder, the kon [13] was 680000 M⁻¹ s⁻¹, the Kd (human mesothelin [14]) was 0.47 nM and the koff (human mesothelin [14]) was 2.4e-05 s⁻¹. It also gave a kon (human mesothelin [14]) of 52000 M⁻¹ s⁻¹, a Kd (cynomolgus mesothelin [15]) of 0.23 nM and a koff (cynomolgus mesothelin [15]) of 7.1e-05 s⁻¹. The kon (cynomolgus mesothelin [15]) was 310000 M⁻¹ s⁻¹, the Kd [16] was 150 nM and the “Max. IL-12p70, dendritic cells with cell-surface mesothelin” value [17] was 100 pg/mL.

B6: CF3 (bispecific antibody, human IgG1, lambda)
heavy: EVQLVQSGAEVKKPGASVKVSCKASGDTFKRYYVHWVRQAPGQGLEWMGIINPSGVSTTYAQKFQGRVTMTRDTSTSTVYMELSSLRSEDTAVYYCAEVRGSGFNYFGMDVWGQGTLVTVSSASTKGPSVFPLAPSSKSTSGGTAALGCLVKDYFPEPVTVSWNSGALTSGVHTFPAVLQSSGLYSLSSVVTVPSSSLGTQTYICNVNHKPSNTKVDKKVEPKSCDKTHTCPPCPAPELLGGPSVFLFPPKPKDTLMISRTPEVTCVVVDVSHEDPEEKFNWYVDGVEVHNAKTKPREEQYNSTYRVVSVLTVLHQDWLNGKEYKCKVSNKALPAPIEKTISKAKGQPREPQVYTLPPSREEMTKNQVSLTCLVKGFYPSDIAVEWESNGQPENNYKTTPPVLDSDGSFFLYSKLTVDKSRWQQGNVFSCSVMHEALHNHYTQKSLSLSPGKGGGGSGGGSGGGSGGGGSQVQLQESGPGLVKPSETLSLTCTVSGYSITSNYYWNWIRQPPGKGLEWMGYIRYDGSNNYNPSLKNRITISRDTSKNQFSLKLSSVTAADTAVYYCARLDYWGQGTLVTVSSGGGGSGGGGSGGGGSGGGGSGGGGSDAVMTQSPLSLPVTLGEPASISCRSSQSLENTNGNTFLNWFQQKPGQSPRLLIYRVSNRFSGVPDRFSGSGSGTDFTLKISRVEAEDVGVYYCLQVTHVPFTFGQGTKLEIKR
light: B5 light
notes: IgG-scFv
In the case of B6, the Kd [9] is reported as < 400 nM, the Kd (cynomolgus mesothelin [10]) is reported as ≤ 0.29 nM and the Kd [11] is reported as < 150 nM. For the same binder, the Kd (human mesothelin [12]) was < 400 nM, the Kd [13] was 14 nM and the koff [13] was 0.0096 s⁻¹. The kon [13] was 690000 M⁻¹ s⁻¹, the Kd (human mesothelin [14]) was 0.59 nM and the koff (human mesothelin [14]) was 3.1e-05 s⁻¹. It also gave a kon (human mesothelin [14]) of 52000 M⁻¹ s⁻¹, a Kd (cynomolgus mesothelin [15]) of 0.29 nM and a koff (cynomolgus mesothelin [15]) of 8.2e-05 s⁻¹. For the same binder, the kon (cynomolgus mesothelin [15]) was 280000 M⁻¹ s⁻¹, the Kd [18] was 8.3 nM and the koff [18] was 0.011 s⁻¹. The kon [18] was 1.3e+06 M⁻¹ s⁻¹ and the “Max. IL-12p70, dendritic cells with cell-surface mesothelin” value [17] was 75 pg/mL.

B7: LB-1 (bispecific antibody, mouse IgG1)
chain: EVQLVESGGGLVQPGRSLKLSCAASGFTFSNYDMAWVRQAPTKGLEWVASISPSGGRTYYRDSVKGRFTVSRDNAKSTLYLQMDSLRSEDTATYYCARHDGSYFDYWGQGVMVTVSSDLSGGGGSGGGGSGGGGSGGGGSTGDTVLTQSPALAVSPGERVTISCRASESVSTLMHWYQQKPGQQPKLLIYLASHLESGVPARFSGSGSGTDFTLTIDPVEADDTATYYCQESWNDPWTFGGGTKLELKRLEVPRDSGSKPCICTVPEVSSVFIFPPKPKDVLTITLTPKVTCVVVDISKDDPEVQFSWFVDDVEVHTAQTQPREEQFNSTFRSVSELPIMHQDWLNGKEFKCRVNSAAFPAPIEKTISKTKGRPKAPQVYTIPPPKEQMAKDKVSLTCMITDFFPEDITVEWQWNGQPAENYKNTQPIMDTDGSYFVYSKLNVQKSNWEAGNTFTCSVLHEGLHNHHTEKSLSHSPGKVDGASSPVNVSSPSVQDIQVQLVQSGAEVKKPGASVKVSCKASGYTFTGNYINWVRQAPGQGLEWMGIINPTKGWTLYAQKFQGRVTMTRDTSISTAYMELSSLRSEDTAVYYCARWHHGTWIFDYWGQGTLVTVSSDLSGGGGSGGGGSGGGGSGGGGSTGDIVLTQPPSVSGAPGQRVTISCSGSSSNIGSNYVSWYQQLPGTAPKLLIYNDNQRPSGVPDRFSGSKSGTSASLAITGLQSEDEADYYCSTYDRRTFSVFGGGTKLTVLG
notes: 1C10 scFv (VH→VL), murine IgG1 hinge-CH2-CH3, MOR06626 scFv (VH→VL); also called mouse bispecific formula (I) protein LB-1
With B7 the EC50 (mouse CD40) was 2.75 µg/mL and the EC50 (MSLN (Table 10-1)) was 1.39 µg/mL.
